Measurements reported in patent US20230113734A1.

Biological target: SARS-CoV-2 S protein (spike protein) (SARS-CoV-2) (UniProt P0DTC2)
Test: ELISA, S proteins on plate (the reference itself)

Question: positive control antibody (CR3022) was tested. Which Binding ability (relative to positive control antibody) did it give?
Answer: 1
